Test results as given in patent US20180037644A1 (Pfizer, published 2018).
Where two headings read alike, the source gives them in different places.

Experiments:
human IL-33 (mm2) [1] = biological target: T1, human IL-33 (mm2) (human, UniProt O95760 112-270); experiment: cell-based or functional assay
T1 chain: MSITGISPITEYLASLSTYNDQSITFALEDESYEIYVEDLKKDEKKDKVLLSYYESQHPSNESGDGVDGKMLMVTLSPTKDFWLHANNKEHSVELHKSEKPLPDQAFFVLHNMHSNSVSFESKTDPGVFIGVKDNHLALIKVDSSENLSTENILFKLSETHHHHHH

[2] = biological target: T2, cynomolgus monkey IL-33 (cys mut) (cynomolgus monkey); experiment: SPR, IgG captured by anti-human Fc, IL-33 in solution
T2 construct: Variant in which the three cysteine residues are serine; N-terminal Met and C-terminal His6 in the entry; also called cyno IL-33; cyno IL-33 (cys mut)
T2 chain: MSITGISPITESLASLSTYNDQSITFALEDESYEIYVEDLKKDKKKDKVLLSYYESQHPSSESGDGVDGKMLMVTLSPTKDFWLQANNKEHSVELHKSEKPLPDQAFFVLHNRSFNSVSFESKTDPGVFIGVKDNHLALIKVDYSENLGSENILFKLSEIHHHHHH
Method: (§1) Binding to human and cynomolgus monkey IL-33 was measured by surface plasmon resonance using a BIAcore T200 instrument. An anti-human Fc antibody was immobilized on a CM5 chip, and anti-IL-33 antibodies were captured.

human IL-33 (mm2) [3] = biological target: T1, human IL-33 (mm2); experiment: as above
Method: as §1

[4] = biological target: T2, cynomolgus monkey IL-33 (cys mut); experiment: cell-based or functional assay
human IL-33 (mm2) [5] = biological target: T1, human IL-33 (mm2); experiment: cell-based or functional assay
human IL-33 (mm2) [6] = biological target: T1, human IL-33 (mm2); experiment: cell-based or functional assay
human IL-33 WT (R&D) [7] = biological target: T3, human IL-33 WT (R&D) (human, UniProt O95760 112-270); experiment: cell-based or functional assay
T3 sequence: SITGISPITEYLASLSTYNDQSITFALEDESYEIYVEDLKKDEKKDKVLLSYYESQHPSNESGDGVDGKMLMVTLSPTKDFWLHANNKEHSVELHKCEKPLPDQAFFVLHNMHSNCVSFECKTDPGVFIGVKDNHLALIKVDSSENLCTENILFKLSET

[8] = biological target: T2, cynomolgus monkey IL-33 (cys mut); experiment: cell-based or functional assay
human IL-33 (mm2) [9] = biological target: T1, human IL-33 (mm2); experiment: cell-based or functional assay
[10] = biological target: T2, cynomolgus monkey IL-33 (cys mut); experiment: cell-based or functional assay
human IL-33 (mm2) [11] = biological target: T1, human IL-33 (mm2); experiment: cell-based or functional assay
[12] = biological target: T2, cynomolgus monkey IL-33 (cys mut); experiment: cell-based or functional assay
human IL-33 (mm2) [13] = biological target: T1, human IL-33 (mm2); experiment: cell-based or functional assay
human IL-33 WT (R&D) [14] = biological target: T3, human IL-33 WT (R&D); experiment: cell-based or functional assay; remark: listed apart in the source
human IL-33 (mm2) [15] = biological target: T1, human IL-33 (mm2); experiment: cell-based or functional assay
human IL-33 WT (R&D) [16] = biological target: T3, human IL-33 WT (R&D); experiment: cell-based or functional assay; remark: listed apart in the source
[17] = biological target: T2, cynomolgus monkey IL-33 (cys mut); experiment: cell-based or functional assay
human IL-33 (mm2) [18] = biological target: T1, human IL-33 (mm2); experiment: cell-based or functional assay
[19] = biological target: T2, cynomolgus monkey IL-33 (cys mut); experiment: cell-based or functional assay
human IL-33 (mm2) [20] = biological target: T1, human IL-33 (mm2); experiment: cell-based or functional assay
human IL-33 WT (R&D) [21] = biological target: T3, human IL-33 WT (R&D); experiment: cell-based or functional assay; remark: listed apart in the source
human IL-33 (mm2) [22] = biological target: T1, human IL-33 (mm2); experiment: cell-based or functional assay
[23] = biological target: T4, wild-type cynomolgus monkey IL-33 (cynomolgus monkey); experiment: cell-based or functional assay
T4 chain: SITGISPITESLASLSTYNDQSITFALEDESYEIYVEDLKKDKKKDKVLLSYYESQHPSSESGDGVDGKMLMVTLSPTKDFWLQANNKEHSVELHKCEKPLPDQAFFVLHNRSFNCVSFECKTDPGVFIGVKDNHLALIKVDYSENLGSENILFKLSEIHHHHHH

[24] = biological target: T2, cynomolgus monkey IL-33 (cys mut); experiment: cell-based or functional assay
human IL-33 (mm2) [25] = biological target: T1, human IL-33 (mm2); experiment: cell-based or functional assay
human IL-33 WT (R&D) [26] = biological target: T3, human IL-33 WT (R&D); experiment: cell-based or functional assay; remark: listed apart in the source
[27] = biological target: T4, wild-type cynomolgus monkey IL-33; experiment: cell-based or functional assay
[28] = biological target: T2, cynomolgus monkey IL-33 (cys mut); experiment: cell-based or functional assay
human IL-33 (mm2) [29] = biological target: T1, human IL-33 (mm2); experiment: cell-based or functional assay
human IL-33 WT (R&D) [30] = biological target: T3, human IL-33 WT (R&D); experiment: cell-based or functional assay; remark: listed apart in the source
human IL-33 (mm2) [31] = biological target: T1, human IL-33 (mm2); experiment: cell-based or functional assay
human IL-33 WT (R&D) [32] = biological target: T3, human IL-33 WT (R&D); experiment: cell-based or functional assay; remark: listed apart in the source

B1: 7E8 CDR graft (antibody, human IgG1, kappa)
heavy: HSEVQLVESGGGLVQPGGSLRLSCAASGFTFSSYWMYWVRQAPGKGLEWVASITPNGGNTYYPDSVKGRFTISRDNAKNSLYLQMNSLRAEDTAVYYCARGHYYYTSYSLGYWGQGTLVTVSSASTKGPSVFPLAPSSKSTSGGTAALGCLVKDYFPEPVTVSWNSGALTSGVHTFPAVLQSSGLYSLSSVVTVPSSSLGTQTYICNVNHKPSNTKVDKKVEPKSCDKTHTCPPCPAPEAAGAPSVFLFPPKPKDTLMISRTPEVTCVVVDVSHEDPEVKFNWYVDGVEVHNAKTKPREEQYNSTYRVVSVLTVLHQDWLNGKEYKCKVSNKALPAPIEKTISKAKGQPREPQVYTLPPSREEMTKNQVSLTCLVKGFYPSDIAVEWESNGQPENNYKTTPPVLDSDGSFFLYSKLTVDKSRWQQGNVFSCSVMHEALHNHYTQKSLSLSPGK
light: DIQMTQSPSSLSASVGDRVTITCKASQNINKHLDWYQQKPGKAPKLLIYFTNNLQTGVPSRFSGSGSGTDFTLTISSLQPEDFATYYCFQYNNGWTFGGGTKVEIKRTVAAPSVFIFPPSDEQLKSGTASVVCLLNNFYPREAKVQWKVDNALQSGNSQESVTEQDSKDSTYSLSSTLTLSKADYEKHKVYACEVTHQGLSSPVTKSFNRGEC
notes: also called CDR-grafted 7E8; 7E8 CDR-grafted
Human IL-33 (mm2) [1]
  IC50, HEK293 ST2 NFkB: 0.019 nM
[2]
  Kd: 0.142 nM
Human IL-33 (mm2) [3]
  Kd: 0.171 nM
[4]
  IC50, HEK293 ST2 NFkB: 0.077 nM
Human IL-33 (mm2) [5]
  IC50, HEK293 ST2 NFkB: 0.057 nM
Human IL-33 (mm2) [6]
  EC50 of IL-33 + 0.2 pM 7E8, human PBMC donor 149: 0.9 pM
  EC50 of IL-33 + 0.2 pM 7E8, human PBMC donor 172: 15.1 pM
  EC50 of IL-33 + 2 pM 7E8, human PBMC donor 149: 2.6 pM
  EC50 of IL-33 + 2 pM 7E8, human PBMC donor 172: 23.2 pM
  EC50 of IL-33 + 20 pM 7E8, HEK293 ST2 NFkB reporter cells: 2.6 pM
  EC50 of IL-33 + 20 pM 7E8, human PBMC donor 149: 29.1 pM
  EC50 of IL-33 + 20 pM 7E8, human PBMC donor 172: 154 pM
  EC50 of IL-33 + 200 pM 7E8, HEK293 ST2 NFkB reporter cells: 29.1 pM
  EC50 of IL-33 + 200 pM 7E8, human PBMC donor 149: 262 pM
  EC50 of IL-33 + 200 pM 7E8, human PBMC donor 172: 400 pM
  EC50 of IL-33 + 2 nM 7E8, HEK293 ST2 NFkB reporter cells: 0.262 nM
  EC50 of IL-33 + 2 nM 7E8, human PBMC donor 149: 2.83 nM
  EC50 of IL-33 + 2 nM 7E8, human PBMC donor 172: 1.22 nM
  EC50 of IL-33 + 20 nM 7E8, HEK293 ST2 NFkB reporter cells: 2.83 nM
Human IL-33 WT (R&D) [7]
  EC50 of IL-33 + 2 pM 7E8, HEK293 ST2 NFkB reporter cells: 8 pM
  EC50 of IL-33 + 20 pM 7E8, HEK293 ST2 NFkB reporter cells: 10.2 pM
  EC50 of IL-33 + 200 pM 7E8, HEK293 ST2 NFkB reporter cells: 25.8 pM
  EC50 of IL-33 + 2 nM 7E8, HEK293 ST2 NFkB reporter cells: 0.103 nM
  EC50 of IL-33 + 20 nM 7E8, HEK293 ST2 NFkB reporter cells: 0.653 nM
[8]
  IC50, HEK293 ST2 NFkB: 0.131 nM
Human IL-33 (mm2) [9]
  IC50, HEK293 ST2 NFkB: 0.059 nM
[10]
  IC50, HEK293 ST2 NFkB: 0.054 nM
Human IL-33 (mm2) [11]
  IC50, HEK293 ST2 NFkB: 0.04 nM
[12]
  IC50, HEK293 ST2 NFkB: 0.069 nM
Human IL-33 (mm2) [13]
  IC50, HEK293 ST2 NFkB: 0.043 nM
Human IL-33 WT (R&D) [14]
  IC50, HEK293 ST2 NFkB: 3.21 nM
Human IL-33 (mm2) [15]
  IC50, human whole blood: 0.014 nM
Human IL-33 WT (R&D) [16]
  IC50, human whole blood: 0.387 nM
[17]
  IC50, HEK293 ST2 NFkB cyno IL-33: 0.18 nM
Human IL-33 (mm2) [18]
  IC50, HEK293 ST2 NFkB: 0.114 nM
  IC50, PBMC mm2: 0.004 nM
  IC50, whole blood mm2: 0.009 nM
[19]
  IC50, HEK293 ST2 NFkB: 0.184 nM
Human IL-33 (mm2) [20]
  IC50, HEK293 ST2 NFkB: 0.093 nM
Human IL-33 WT (R&D) [21]
  IC50, HEK293 ST2 NFkB: 0.322 nM
Human IL-33 (mm2) [22]
  IC50, IFN-γ production in human PBMC: 0.0014 nM

B2: IL33-158LS (antibody, human IgG1, kappa)
heavy: EVQLVESGGGLVQPGGSLRLSCAASGFTFSSYWMYWVRQAPGKGLEWVAAITPNAGEDYYPESVKGRFTISRDNAKNSLYLQMNSLRAEDTAVYYCARGHYYYTSYSLGYWGQGTLVTVSSASTKGPSVFPLAPSSKSTSGGTAALGCLVKDYFPEPVTVSWNSGALTSGVHTFPAVLQSSGLYSLSSVVTVPSSSLGTQTYICNVNHKPSNTKVDKKVEPKSCDKTHTCPPCPAPEAAGAPSVFLFPPKPKDTLMISRTPEVTCVVVDVSHEDPEVKFNWYVDGVEVHNAKTKPREEQYNSTYRVVSVLTVLHQDWLNGKEYKCKVSNKALPAPIEKTISKAKGQPREPQVYTLPPSREEMTKNQVSLTCLVKGFYPSDIAVEWESNGQPENNYKTTPPVLDSDGSFFLYSKLTVDKSRWQQGNVFSCSVLHEALHSHYTQKSLSLSPG
light: DIQMTQSPSSLSASVGDRVTITCKASQNINKHLDWYQQKPGKAPKLLIYFTNNLQTGVPSRFSGSGSGTDFTLTISSLQPEDFATYYCFQYNQGWTFGGGTKVEIKRTVAAPSVFIFPPSDEQLKSGTASVVCLLNNFYPREAKVQWKVDNALQSGNSQESVTEQDSKDSTYSLSSTLTLSKADYEKHKVYACEVTHQGLSSPVTKSFNRGEC
[23]
  Cynomolgus monkey:human IC50 ratio: wild-type IL-33: 9.2
  IC50, HEK293 ST2 NFkB: 0.562 nM
[24]
  Cynomolgus monkey:human IC50 ratio: cysteine mutant IL-33: 1.4
  IC50, HEK293 ST2 NFkB: 0.013 nM
Human IL-33 (mm2) [25]
  IC50, HEK293 ST2 NFkB: 0.009 nM
Human IL-33 WT (R&D) [26]
  IC50, HEK293 ST2 NFkB: 0.061 nM
[27]
  Cynomolgus monkey:human IC50 ratio: wild-type IL-33: 4.2
  IC50, HEK293 ST2 NFkB (DTT-pretreated IL-33): 1.39 nM
[28]
  Cynomolgus monkey:human IC50 ratio: cysteine mutant IL-33: 1.8
  IC50, HEK293 ST2 NFkB: 0.034 nM
Human IL-33 (mm2) [29]
  IC50, HEK293 ST2 NFkB: 0.019 nM
Human IL-33 WT (R&D) [30]
  IC50, HEK293 ST2 NFkB (DTT-pretreated IL-33): 0.331 nM
Human IL-33 (mm2) [31]
  IC50, HEK293 ST2 NFkB: 0.079 nM
Human IL-33 WT (R&D) [32]
  IC50, HEK293 ST2 NFkB: 2.66 nM
Human IL-33 (mm2) [15]
  IC50, human whole blood: 0.021 nM
Human IL-33 WT (R&D) [16]
  IC50, human whole blood: 0.868 nM
[19]
  IC50, HEK293 ST2 NFkB: 0.198 nM
Human IL-33 (mm2) [20]
  IC50, HEK293 ST2 NFkB: 0.162 nM
Human IL-33 WT (R&D) [21]
  IC50, HEK293 ST2 NFkB: 0.983 nM
Human IL-33 (mm2) [22]
  IC50, IFN-γ production in human PBMC: 0.0014 nM
